Target: huFcγRIIa-131H (His-tagged, soluble, captured for SPR) (human) (UniProt P12318)
Assay: SPR, His-tagged FcγR captured by anti-His antibody, antibody injected

huFcγRIIa-131H (His-tagged, soluble, captured for SPR) (human), sequence (P12318 34-217 limits assumed): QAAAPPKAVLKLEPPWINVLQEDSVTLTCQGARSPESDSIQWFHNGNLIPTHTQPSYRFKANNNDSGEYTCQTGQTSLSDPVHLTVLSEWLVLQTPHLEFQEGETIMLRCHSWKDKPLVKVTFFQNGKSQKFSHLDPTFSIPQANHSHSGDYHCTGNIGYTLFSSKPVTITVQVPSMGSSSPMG

huIgG2 control (antibody)
Kd: 25 µM

Reference: patent US20220177580A1
